Test results taken from CN109734803A (ZONHON BIOPHARMA INST INC, dated 2019).
Each block holds one binder with its values, some of them ahead of it.

What was measured:
重组人MYO(大肠杆菌重组表达，本公司制备) [1] = biological target: T1, 重组人MYO(大肠杆菌重组表达，本公司制备) (human, UniProt P02144 2-154); assay: indirect ELISA, recombinant human MYO coated at 1 μg/mL, hybridoma supernatant, HRP goat anti-mouse IgG
T1 construct: The background describes myoglobin as one chain of 153 residues with a haem group; also called 重组MYO; 人肌红蛋白
T1 sequence (looked up): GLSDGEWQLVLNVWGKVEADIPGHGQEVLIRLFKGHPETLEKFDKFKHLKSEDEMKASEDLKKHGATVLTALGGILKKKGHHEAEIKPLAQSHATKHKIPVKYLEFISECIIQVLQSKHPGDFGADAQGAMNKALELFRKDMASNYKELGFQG

重组人MYO(大肠杆菌重组表达，本公司制备) [2] = biological target: T1, 重组人MYO(大肠杆菌重组表达，本公司制备); assay: Western blot, recombinant MYO on nitrocellulose, HRP-labelled M08 at 1:1000
重组人MYO(大肠杆菌重组表达，本公司制备) [3] = biological target: T1, 重组人MYO(大肠杆菌重组表达，本公司制备); assay: Western blot, recombinant MYO on nitrocellulose, HRP-labelled M26 at 1:1000

- binding result (重组人MYO(大肠杆菌重组表达，本公司制备) [1]): binds
B1: 杂交瘤细胞株M08的抗人MYO抗体 (antibody, V domains shown)
VH: QVQLQQSGAELAKPGASVKMSCKASGYTFTSYWMHWVKQRPGQGLEWIGYIKPNTDYTEYNQKFKDKATLTADKSSSTAYMQLSSLTSEDSAVYYCTRIRGYALDYWGQGTSVTVSS
VL: DIVMTQSPSSLTVTAGEKVTMICKSSQSLLNSGNQKNYLTWYQQKPGQPPKLLIYWASTRESGVPDRFTGSGSGTDFTLTISSVQAEDLAVYYCQNDYNFPLTFGAGTKLELK
notes: Mouse hybridoma culture supernatant, detected with HRP goat anti-mouse IgG; also called 抗人肌红蛋白抗体(M08)

- binding result (重组人MYO(大肠杆菌重组表达，本公司制备) [2]): binds
B2: 单链抗体M08 (scFv)
scFv: QVQLQQSGAELAKPGASVKMSCKASGYTFTSYWMHWVKQRPGQGLEWIGYIKPNTDYTEYNQKFKDKATLTADKSSSTAYMQLSSLTSEDSAVYYCTRIRGYALDYWGQGTSVTVSSGGGGSGGGGSGGGGSDIVMTQSPSSLTVTAGEKVTMICKSSQSLLNSGNQKNYLTWYQQKPGQPPKLLIYWASTRESGVPDRFTGSGSGTDFTLTISSVQAEDLAVYYCQNDYNFPLTFGAGTKLELK
notes: VH and VL of M08 joined by a (GGGGS)3 linker, expressed in E. coli and purified on HisTrap; HRP-labelled in the Western blot; coupled to time-resolved fluorescent microspheres in the test card; also called M08-scFv; M08-HRP; not shown: Histidine tag introduced downstream of the gene

- binding result (重组人MYO(大肠杆菌重组表达，本公司制备) [1]): binds
B3: 杂交瘤细胞株M26的抗人MYO抗体 (antibody, V domains shown)
VH: QVQLQQSGDDLVKPGASVKLSCKASGYTFTSYWINWIKQRPGQGLEWIGRIAPEGDSTYYNEMFKGKATLTVDTSSSTAYIQLSSLSSEDSAVYFCAREVRNAMDYWGQGTSVTVSS
VL: DIQMNQSPSSLSASLGDTITITCHASQNIHVWLSWYLQKPGNITKLLIYEASNLHTGVPSRFSGSGSGTGFTLTISSLQPEDIATYYCQQGQRYPLTFGGGTKLEIK
notes: Mouse hybridoma culture supernatant, detected with HRP goat anti-mouse IgG; also called 抗人肌红蛋白抗体(M26)

- binding result (重组人MYO(大肠杆菌重组表达，本公司制备) [3]): binds
B4: 单链抗体M26 (scFv)
scFv: QVQLQQSGDDLVKPGASVKLSCKASGYTFTSYWINWIKQRPGQGLEWIGRIAPEGDSTYYNEMFKGKATLTVDTSSSTAYIQLSSLSSEDSAVYFCAREVRNAMDYWGQGTSVTVSSGGGGSGGGGSGGGGSDIQMNQSPSSLSASLGDTITITCHASQNIHVWLSWYLQKPGNITKLLIYEASNLHTGVPSRFSGSGSGTGFTLTISSLQPEDIATYYCQQGQRYPLTFGGGTKLEIK
notes: VH and VL of M26 joined by a (GGGGS)3 linker, expressed in E. coli and purified on HisTrap; HRP-labelled in the Western blot; coated on the T line of the nitrocellulose membrane in the test card; also called M26-scFv; M26-HRP; not shown: Histidine tag introduced downstream of the gene
